Data taken from patent US20240294623A1 (SCHOLAR ROCK, published 2024).

Assays:
[1] = biological target: T1, mLTBP3-proTGFβ1 (mouse); assay: SPR (Biacore), Fab
T1 construct: Murine LLC; also called murine LTBP3-proTGFβ1 complex
Description: (§1) Surface plasmon resonance (SPR) was used to measure binding kinetics using a BIACORE® system. […] Experiments were carried out with eight types of LLCs, namely, hLTBP1-proTGFβ1, mLTBP1-proTGFβ1, hLTBP3-proTGFβ1, mLTBP3-proTGFβ1, hGARP-proTGFβ1, mGARP-proTGFβ1, hLRRC33-proTGFβ1 and mLRRC33-proTGFβ1.
(§2) In vitro binding kinetics (on/off rates) were measured in Biacore-based assays and affinities were determined against all four known LLCs using both human and murine counterparts for each. Based on the association rate and dissociation rate, KD was calculated for each. In addition, relative affinities, as compared to the reference antibody as a benchmark, were calculated and expressed as “fold difference” relative to the reference antibody.
(§3) A BIACORE® system was employed to determine the monovalent binding affinity and the kinetic parameters for antigen binding of test antibodies. The binding kinetics were evaluated by surface plasmon resonance using Biacore 8K (GE Healthcare). A Biotin CAP sensor chip was used to capture the biotinylated antigens. […] Multi-cycle kinetics was employed where each analyte concentration was injected in a separate cycle and the sensor chip surface was regenerated after each cycle. All the assays were carried out in freshly prepared 1×HBS-EP+buffer (10 mM HEPES, 150 mM NaCl, 3 mM EDTA, 0.05% Tween20, pH 7.4). Data for all the analyte concentrations for each interaction were fit globally to a 1:1 binding model to obtain the kinetic parameters. The Sensorgram for 0 nM analyte concentration was used as reference.

[2] = biological target: T2, mLTBP1-proTGFβ1 (mouse); assay: SPR (Biacore), Fab
T2 construct: Murine LLC; also called murine LTBP1-proTGFβ1 complex
T2 sequence (Q8CG19 339-1712): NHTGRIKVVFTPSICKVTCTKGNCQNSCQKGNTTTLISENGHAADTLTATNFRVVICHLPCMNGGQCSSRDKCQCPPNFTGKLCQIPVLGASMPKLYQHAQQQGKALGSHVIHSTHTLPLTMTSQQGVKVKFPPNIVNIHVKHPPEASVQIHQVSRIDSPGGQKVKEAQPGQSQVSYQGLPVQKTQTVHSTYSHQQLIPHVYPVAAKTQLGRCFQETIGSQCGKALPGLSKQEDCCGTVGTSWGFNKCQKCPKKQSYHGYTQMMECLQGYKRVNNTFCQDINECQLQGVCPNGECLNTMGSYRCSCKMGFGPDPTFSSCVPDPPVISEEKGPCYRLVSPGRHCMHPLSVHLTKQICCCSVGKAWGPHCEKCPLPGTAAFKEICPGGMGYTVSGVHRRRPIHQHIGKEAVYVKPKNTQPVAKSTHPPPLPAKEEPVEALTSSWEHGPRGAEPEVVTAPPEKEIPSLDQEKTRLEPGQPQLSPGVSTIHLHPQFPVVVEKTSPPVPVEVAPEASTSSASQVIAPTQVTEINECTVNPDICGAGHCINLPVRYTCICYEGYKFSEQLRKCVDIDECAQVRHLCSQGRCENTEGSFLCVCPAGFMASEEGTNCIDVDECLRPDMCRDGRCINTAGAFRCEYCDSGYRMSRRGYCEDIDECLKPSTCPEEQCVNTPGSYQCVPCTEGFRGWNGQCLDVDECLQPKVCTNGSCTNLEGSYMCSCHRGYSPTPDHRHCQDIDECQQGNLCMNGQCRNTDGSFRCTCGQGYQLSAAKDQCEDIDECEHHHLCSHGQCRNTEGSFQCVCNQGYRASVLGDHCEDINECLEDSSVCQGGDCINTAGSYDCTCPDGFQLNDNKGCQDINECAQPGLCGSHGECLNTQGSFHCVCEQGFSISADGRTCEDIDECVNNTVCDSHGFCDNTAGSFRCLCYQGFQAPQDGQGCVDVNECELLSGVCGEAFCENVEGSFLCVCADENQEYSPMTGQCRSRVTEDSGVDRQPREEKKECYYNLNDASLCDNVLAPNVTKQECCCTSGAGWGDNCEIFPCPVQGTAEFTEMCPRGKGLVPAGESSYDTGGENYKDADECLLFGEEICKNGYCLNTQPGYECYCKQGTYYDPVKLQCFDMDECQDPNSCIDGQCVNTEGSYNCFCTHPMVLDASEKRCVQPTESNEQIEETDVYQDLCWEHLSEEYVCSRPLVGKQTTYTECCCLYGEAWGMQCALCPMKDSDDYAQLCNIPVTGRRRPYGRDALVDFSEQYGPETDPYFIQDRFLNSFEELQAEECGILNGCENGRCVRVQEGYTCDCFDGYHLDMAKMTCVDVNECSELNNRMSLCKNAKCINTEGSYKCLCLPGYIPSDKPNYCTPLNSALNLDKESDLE
Description: as §1, §2, §3

[3] = biological target: T3, hLRRC33-proTGFβ1 (human, UniProt Q86YC3 19-650; P01137 30-390, limits assumed); assay: SPR (Biacore 8K), biotinylated antigen captured, Fab as analyte
T3 construct: LLC as m1; Same id used for the cell-surface complex in reporter assays; also called human LRRC33-proTGFβ1 complex; LRRC33-ProTGFb1
T3 sequence (Q86YC3 19-650 limits assumed, chain 1 of 2): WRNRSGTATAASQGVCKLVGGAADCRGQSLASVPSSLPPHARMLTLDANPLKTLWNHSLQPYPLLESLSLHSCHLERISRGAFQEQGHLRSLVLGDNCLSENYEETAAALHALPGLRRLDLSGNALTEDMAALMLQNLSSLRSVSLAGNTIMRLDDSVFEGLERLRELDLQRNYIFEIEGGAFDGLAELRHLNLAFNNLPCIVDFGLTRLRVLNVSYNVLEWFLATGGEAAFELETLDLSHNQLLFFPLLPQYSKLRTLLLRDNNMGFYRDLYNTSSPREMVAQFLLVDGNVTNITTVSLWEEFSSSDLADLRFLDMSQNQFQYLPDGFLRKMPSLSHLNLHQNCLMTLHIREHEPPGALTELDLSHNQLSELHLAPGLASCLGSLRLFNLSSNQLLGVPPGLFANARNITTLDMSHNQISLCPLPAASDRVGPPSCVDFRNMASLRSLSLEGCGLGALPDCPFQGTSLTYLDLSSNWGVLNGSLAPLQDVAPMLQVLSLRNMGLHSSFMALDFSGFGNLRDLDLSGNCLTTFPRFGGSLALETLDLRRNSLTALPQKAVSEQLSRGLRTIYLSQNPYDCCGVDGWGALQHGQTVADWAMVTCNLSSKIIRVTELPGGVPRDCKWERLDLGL
T3 sequence (P01137 30-390 limits assumed, chain 2 of 2): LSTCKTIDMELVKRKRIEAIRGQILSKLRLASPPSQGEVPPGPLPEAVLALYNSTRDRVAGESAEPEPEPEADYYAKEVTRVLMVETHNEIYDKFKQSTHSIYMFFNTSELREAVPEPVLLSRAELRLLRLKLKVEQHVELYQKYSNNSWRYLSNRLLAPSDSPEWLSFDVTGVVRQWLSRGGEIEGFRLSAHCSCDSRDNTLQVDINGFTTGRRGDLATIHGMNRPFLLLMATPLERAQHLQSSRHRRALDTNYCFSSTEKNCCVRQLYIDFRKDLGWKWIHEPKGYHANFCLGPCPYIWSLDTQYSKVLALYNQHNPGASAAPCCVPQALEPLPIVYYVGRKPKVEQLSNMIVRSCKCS
Description: as §3
(§4) The binding kinetics of antibody interactions with each of the antigen complexes, human LTBP1-ProTGFb1, human LTBP3-ProTGFb1, human GARP-ProTGFb1, and human LRRC33-ProTGFb1, were evaluated by surface plasmon resonance. Binding kinetics was evaluated by surface plasmon resonance using a BIACORE® 8K (GE) instrument. Biotinylated antigens were captured on a Biotin CAP chip and the Fab fragments of the antibodies were used as analytes. Sensorgrams for Fab binding at variable concentrations (0.6-10 nM) were globally fit to obtain the kinetic parameters.
(§5) Binding kinetics for the Fabs were evaluated against each of the four human antigens, LTBP1-ProTGFb1, LTBP3-ProTGFb1, GARP-ProTGFb1, and LRRC33-ProTGFb1. […] These experiments were repeated.

[4] = biological target: T4, hLTBP3-proTGFβ1 (human, UniProt Q9NS15 44-1303; P01137 30-390, limits assumed); assay: as above
T4 construct: LLC as m1; Same id used for the cell-made complex in reporter assays; also called human LTBP3-proTGFβ1 complex; LTBP3-ProTGFb1
T4 sequence (Q9NS15 44-1303 limits assumed, chain 1 of 2): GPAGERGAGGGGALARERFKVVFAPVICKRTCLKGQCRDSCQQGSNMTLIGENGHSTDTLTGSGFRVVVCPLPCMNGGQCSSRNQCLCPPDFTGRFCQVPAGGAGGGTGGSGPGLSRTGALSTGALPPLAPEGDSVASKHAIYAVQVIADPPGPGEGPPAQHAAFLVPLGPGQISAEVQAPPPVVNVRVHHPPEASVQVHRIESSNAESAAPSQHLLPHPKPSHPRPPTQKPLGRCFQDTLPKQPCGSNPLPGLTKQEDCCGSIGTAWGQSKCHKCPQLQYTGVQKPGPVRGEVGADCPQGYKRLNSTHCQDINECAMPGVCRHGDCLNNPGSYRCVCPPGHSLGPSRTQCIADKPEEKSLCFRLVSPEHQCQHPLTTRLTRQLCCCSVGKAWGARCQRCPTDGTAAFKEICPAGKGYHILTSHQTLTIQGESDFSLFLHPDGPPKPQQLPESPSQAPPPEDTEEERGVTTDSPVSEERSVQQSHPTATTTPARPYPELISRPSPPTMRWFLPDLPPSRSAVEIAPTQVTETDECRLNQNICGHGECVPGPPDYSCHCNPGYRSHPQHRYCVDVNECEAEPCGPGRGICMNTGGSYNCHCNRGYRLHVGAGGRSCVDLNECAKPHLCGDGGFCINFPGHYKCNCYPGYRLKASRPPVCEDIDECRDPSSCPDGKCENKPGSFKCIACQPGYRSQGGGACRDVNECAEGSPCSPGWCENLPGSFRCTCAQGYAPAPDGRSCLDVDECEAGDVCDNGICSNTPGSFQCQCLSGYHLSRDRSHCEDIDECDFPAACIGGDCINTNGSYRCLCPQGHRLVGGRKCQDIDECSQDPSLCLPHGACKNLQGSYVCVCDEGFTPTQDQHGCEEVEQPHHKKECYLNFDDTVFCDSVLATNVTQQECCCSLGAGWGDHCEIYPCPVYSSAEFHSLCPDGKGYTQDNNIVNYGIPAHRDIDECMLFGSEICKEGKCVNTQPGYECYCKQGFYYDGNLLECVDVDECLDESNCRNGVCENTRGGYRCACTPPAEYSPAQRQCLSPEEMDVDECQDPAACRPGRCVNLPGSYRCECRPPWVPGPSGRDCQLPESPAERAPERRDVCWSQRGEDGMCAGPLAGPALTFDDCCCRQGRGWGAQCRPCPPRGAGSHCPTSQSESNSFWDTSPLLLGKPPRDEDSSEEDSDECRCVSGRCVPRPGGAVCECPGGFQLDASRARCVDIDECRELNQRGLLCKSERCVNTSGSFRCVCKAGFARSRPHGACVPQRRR
T4 sequence (P01137 30-390 limits assumed, chain 2 of 2): as the sequence (P01137 30-390 limits assumed, chain 2 of 2) above
Description: as §3, §4, §5

[5] = biological target: T5, hLTBP1-proTGFβ1 (human, UniProt Q14766 347-1721; P01137 30-390, limits assumed); assay: as above
T5 construct: Large latent complex (LLC): proTGFβ1 dimer disulfide-linked to one presenting molecule; recombinant, purified, biotinylated in BLI/SPR; The same id is used for the complex made by transfected cells in the reporter assays; also called human LTBP1-proTGFβ1 complex; LTBP1-ProTGFb1
Description: as §3, §4, §5

[6] = biological target: T6, hGARP-proTGFβ1 (human, UniProt Q14392 18-627; P01137 30-390, limits assumed); assay: as above
T6 construct: LLC as m1; Same id used for the cell-surface complex in reporter assays; also called human GARP-proTGFβ1 complex; GARP-ProTGFb1
T6 sequence (Q14392 18-627 limits assumed, chain 1 of 2): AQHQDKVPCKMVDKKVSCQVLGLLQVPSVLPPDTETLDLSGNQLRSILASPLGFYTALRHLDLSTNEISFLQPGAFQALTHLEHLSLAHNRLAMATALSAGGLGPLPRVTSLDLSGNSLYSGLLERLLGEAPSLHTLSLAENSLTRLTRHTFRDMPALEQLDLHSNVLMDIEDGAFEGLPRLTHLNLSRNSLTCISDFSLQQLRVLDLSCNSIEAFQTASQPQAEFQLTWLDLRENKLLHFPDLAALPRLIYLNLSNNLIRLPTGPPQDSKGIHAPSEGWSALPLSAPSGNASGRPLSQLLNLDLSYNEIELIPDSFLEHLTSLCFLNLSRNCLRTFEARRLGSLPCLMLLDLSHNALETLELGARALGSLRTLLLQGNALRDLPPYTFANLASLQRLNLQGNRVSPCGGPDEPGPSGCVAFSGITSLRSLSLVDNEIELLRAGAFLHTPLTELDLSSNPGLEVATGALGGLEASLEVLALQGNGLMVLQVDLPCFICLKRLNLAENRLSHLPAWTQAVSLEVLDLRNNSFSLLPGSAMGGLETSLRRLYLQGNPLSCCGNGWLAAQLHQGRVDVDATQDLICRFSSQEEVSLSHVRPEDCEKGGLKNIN
T6 sequence (P01137 30-390 limits assumed, chain 2 of 2): as the sequence (P01137 30-390 limits assumed, chain 2 of 2) above
Description: as §3, §4, §5

- Kd [1]: 0.0956 nM
- koff [1]: 0.000115 s⁻¹
- kon [1]: 1.2e+06 M⁻¹ s⁻¹
- Kd [2]: 0.0534 nM
- koff [2]: 9.87e-05 s⁻¹
- kon [2]: 1.85e+06 M⁻¹ s⁻¹
- Kd [3]: 0.119 nM
- koff [3]: 0.000162 s⁻¹
- kon [3]: 1.36e+06 M⁻¹ s⁻¹
- Kd [4]: 0.109 nM
- koff [4]: 0.000195 s⁻¹
- kon [4]: 1.78e+06 M⁻¹ s⁻¹
- Kd [5]: 0.035 nM
- koff [5]: 8.52e-05 s⁻¹
- kon [5]: 2.44e+06 M⁻¹ s⁻¹
- Kd [6]: 0.19 nM
- koff [6]: 0.000359 s⁻¹
- kon [6]: 1.89e+06 M⁻¹ s⁻¹
B1: Ab46 Fab (Fab, V domains shown)
VH: EVQLLESGGGLVQPGGSLRLSCAASGFTFADYAMTWVRQAPGKGLEWVSAISGSGAATYFADSVKGRFTISRDNSKNTLYLQMNSLRAEDTAVYYCARVSSGHWDYDYWGQGTLVTVSS
VL: DIQLTQSPSSLSASVGDRVTITCRASQSISSYLNWYQQKPGKAPKLLIYAASGLESGVPSRFSGSGSGTDFTLTISSLQPEDFATYYCQQTYGVPLTFGGGTKVEIK
notes: Fab fragment
